The series can be described thus: Relaxivity measurement of BSA conjugates in aqueous solution and in plasma. In kind it is physicochemical. Conditions: relaxivity per mol of gadolinium, calculated from the measured values, +37° C., 20 MHz. As for the experimental part:
In this example, the relaxivities of the conjugates from Examples 30-38 were compared with the relaxivities of two comparison substances. As comparison substances, Gd-DTPA (1) with the formula: [drawing 16]
and Gd-GlyMeDOTA (2) with the formula: [drawing 17]
which were reacted in each case with bovine serum albumin (BSA), were used.
The measurements were made in each case in aqueous solution and in plasma at +37° C. and a frequency of 20 MHz. The results are summarized in Table 2 below, whereby the indicated relaxivities per mol of gadolinium were calculated from the measured values: […]

Take “Gd-GlyMeDOTA [Vergleichssubstanz 2, reference compound]”: the “R1 (H2O)” value (aqueous solution) was 18.3 L/mmol/s. Also, under “plasma”, the “R1 (Plasma)” value was 20.8 L/mmol/s.

Values taken from patent US20030206865A1, “Conjugates of macrocyclic metal complexes with biomolecules and their use for the production of agents for NMR diagnosis and radiodiagnosis as well as radiotherapy” (Schering AG, priority 2001, published 2003).
